T1: recombinant Human BCMA Fc Chimera (produced in-house via transient expression in HEK293-6E cells) (human, UniProt Q02223 1-54)
T1 construct: not shown: Fc part of the chimera
T1 sequence (looked up): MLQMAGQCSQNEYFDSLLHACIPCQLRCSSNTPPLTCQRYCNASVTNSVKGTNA


Legend:
[1] = target: T2, recombinant human PD-L1 His-tag protein (expressed after transient transfection in HEK293-6E) (human, UniProt Q9NZQ7 19-238, limits assumed); experiment: dual-binding ELISA: BCMA Fc coated, then PD-L1 His, anti-His detection
T2 construct: not shown: His-tag

[2] = target: T3, recombinant human CD3 epsilon His-tag protein (Novoprotein, Cat. No. C578) (human, UniProt P07766 23-126); experiment: dual-binding ELISA: BCMA Fc coated, then CD3 epsilon His, anti-His detection
T3 construct: Bought protein; not shown: His-tag

[3] = target: T1, recombinant Human BCMA Fc Chimera …; experiment: dual-binding ELISA: BCMA Fc coated, then CD3 epsilon His or PD-L1 His, anti-His detection
Protocol: Trispecific antibody molecules were tested for their ability to bind the different targets using a Dual-Binding ELISA. […] Simultaneous binding to antigen pairs was detected via an anti-His antibody (Abcam, Cat. No. ab1187).

[4] = target: T4, extracellular domain of human PD-L1 (Example 8) (human, UniProt Q9NZQ7 19-238); experiment: competition ELISA in solution (Friguet), Scatchard plot
T4 construct: extracellular domain; also called PD-L1 antigen; immobilized PD-L1
T4 sequence (Q9NZQ7 19-238): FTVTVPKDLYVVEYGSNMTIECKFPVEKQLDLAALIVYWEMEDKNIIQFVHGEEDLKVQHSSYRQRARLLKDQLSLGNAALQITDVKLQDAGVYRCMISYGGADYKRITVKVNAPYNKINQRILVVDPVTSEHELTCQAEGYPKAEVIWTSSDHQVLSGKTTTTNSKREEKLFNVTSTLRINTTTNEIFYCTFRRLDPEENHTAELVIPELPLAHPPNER
Protocol: First, mixtures of the trispecific antibody (Ab) at a fixed concentration and the PD-L1 antigen (Ag) at varying concentrations were incubated for sufficient time to reach equilibrium. Then the concentration of trispecific antibody, which remained unsaturated at equilibrium (not associated with PD-L1 antigen), was measured by a classical indirect ELISA using PD-L1 coated plates. […] The Kd was calculated from a Scatchard plot using the following equation:

T3 sequence (P07766 23-126): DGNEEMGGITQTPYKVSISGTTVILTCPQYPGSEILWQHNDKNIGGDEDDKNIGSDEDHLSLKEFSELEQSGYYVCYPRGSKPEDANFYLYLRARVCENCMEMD
T2 sequence (Q9NZQ7 19-238 limits assumed): as the sequence (Q9NZQ7 19-238) above

Row | Binder | binding result [1] | binding result [2] | binding result [3] | Kd [4] [nM]
1 | CDR1-049 (other, Trispecific Fab-scFv: anti-PD-L1 Fab, anti-CD3 scFv on the Fd, anti-BCMA scFv on the light chain) heavy: EVQLVESGGGSVQPGGSLRLSCTVSGIDLSSYTMGWVRQAPGKGLEWVGIISSGGRTYYASWAKGRFTISRDTSKNTVYLQMNSLRAEDTATYYCARGRYTGYPYYFALWGQGTTVTVSSASTKGPSVFPLAPSSKSTSGGTAALGCLVKDYFPEPVTVSWNSGALTSGVHTFPAVLQSSGLYSLSSVVTVPSSSLGTQTYICNVNHKPSNTKVDKRVEPKSCGGGGSAVVTQEPSLTVSPGGTVTLTCGSSTGAVTTSNYANWVQQKPGKSPRGLIGGTNKRAPGVPARFSGSLLGGKAALTISGAQPEDEADYYCALWYSNHWVFGGGTKLTVLGGGGGSGGGGSGGGGSGGGGSEVQLVESGGGSVQPGGSLRLSCAASGFTFSTYAMNWVRQAPGKGLEWVGRIRSKANNYATYYADSVKGRFTISRDDSKNTLYLQMNSLRAEDTATYYCVRHGNFGDSYVSWFAYWGQGTTVTVSS light: EIVMTQSPSTLSASVGDRVIITCQASEDIYSLLAWYQQKPGKAPKLLIYDASDLASGVPSRFSGSGSGAEFTLTISSLQPDDSATYYCQGNYGSSSSSSYGAVFGQGTKLTVLGTVAAPSVFIFPPSDEQLKSGTASVVCLLNNFYPREAKVQWKVDNALQSGNSQESVTEQDSKDSTYSLSSTLTLSKADYEKHKVYACEVTHQGLSSPVTKSFNRGECGGGGSDIVLTQSPASLAMSLGKRATISCRASESVSVIGAHLIHWYQQKPGQPPKLLIYLASNLETGVPARFSGSGSGTDFTLTIDPVEEDDVAIYSCLQSRIFPRTFGGGTKLEIKGGGGSGGGGSGGGGSGGGGSQIQLVQSGPELKKPGETVKISCKASGYTFTDYSINWVKRAPGKGLKWMGWINTETREPAYAYDFRGRFAFSLETSASTAYLQINNLKYEDTATYFCALDYSYAMDYWGQGTSVTVSS | binds | binds | binds | –
2 | CDR1-011 (other, also called CDR1-0011) heavy: QIQLVQSGPELKKPGETVKISCKASGYTFTDYSINWVKRAPGKGLKWMGWINTETREPAYAYDFRGRFAFSLETSASTAYLQINNLKYEDTATYFCALDYSYAMDYWGQGTSVTVSSASTKGPSVFPLAPSSKSTSGGTAALGCLVKDYFPEPVTVSWNSGALTSGVHTFPAVLQSSGLYSLSSVVTVPSSSLGTQTYICNVNHKPSNTKVDKRVEPKSCGGGGSEIVMTQSPSTLSASVGDRVIITCQASEDIASLLAWYQQKPGKAPKLLIYDASDLASGVPSRFSGSGSGAEFTLTISSLQPDDSATYYCQGNYGSSSSSSYGAVFGQGTKLTVLGGGGGSGGGGSGGGGSGGGGSEVQLVESGGGSVQPGGSLRLSCTVSGIDLSSYTMGWVRQAPGKGLEWVGIISSGGRTYYASWAKGRFTISRDTSKNTVYLQMNSLRAEDTATYYCARGRYTGYPYYFALWGQGTTVTVSS light: DIVLTQSPASLAMSLGKRATISCRASESVSVIGAHLIHWYQQKPGQPPKLLIYLASNLETGVPARFSGSGSGTDFTLTIDPVEEDDVAIYSCLQSRIFPRTFGGGTKLEIKRTVAAPSVFIFPPSDEQLKSGTASVVCLLNNFYPREAKVQWKVDNALQSGNSQESVTEQDSKDSTYSLSSTLTLSKADYEKHKVYACEVTHQGLSSPVTKSFNRGECGGGGSAVVTQEPSLTVSPGGTVTLTCGSSTGAVTTSNYANWVQQKPGKSPRGLIGGTNKRAPGVPARFSGSLLGGKAALTISGAQPEDEADYYCALWYSNHWVFGGGTKLTVLGGGGGSGGGGSGGGGSGGGGSEVQLVESGGGSVQPGGSLRLSCAASGFTFSTYAMNWVRQAPGKGLEWVGRIRSKANNYATYYADSVKGRFTISRDDSKNTLYLQMNSLRAEDTATYYCVRHGNFGDSYVSWFAYWGQGTTVTVSS | – | – | – | 5
3 | CDR1-055 (other, Trispecific: anti-BCMA Fab, anti-PD-L1 sdAb on the Fd, anti-CD3 scFv on the light chain) heavy: QIQLVQSGPELKKPGETVKISCKASGYTFTDYSINWVKRAPGKGLKWMGWINTETREPAYAYDFRGRFAFSLETSASTAYLQINNLKYEDTATYFCALDYSYAMDYWGQGTSVTVSSASTKGPSVFPLAPSSKSTSGGTAALGCLVKDYFPEPVTVSWNSGALTSGVHTFPAVLQSSGLYSLSSVVTVPSSSLGTQTYICNVNHKPSNTKVDKRVEPKSCGGGGSQVQLVESGGGLVQPGGSLRLSCAASGKMSSRRCMAWFRQAPGKGLERVAKLLTTSGSTYLADSVKGRFTISRDNSKNTVYLQMNSLRAEDTAVYYCAADSFEDPTCTLVTSSGAFQYWGQGTLVTVSS light: DIVLTQSPASLAMSLGKRATISCRASESVSVIGAHLIHWYQQKPGQPPKLLIYLASNLETGVPARFSGSGSGTDFTLTIDPVEEDDVAIYSCLQSRIFPRTFGGGTKLEIKRTVAAPSVFIFPPSDEQLKSGTASVVCLLNNFYPREAKVQWKVDNALQSGNSQESVTEQDSKDSTYSLSSTLTLSKADYEKHKVYACEVTHQGLSSPVTKSFNRGECGGGGSAVVTQEPSLTVSPGGTVTLTCGSSTGAVTTSNYANWVQQKPGKSPRGLIGGTNKRAPGVPARFSGSLLGGKAALTISGAQPEDEADYYCALWYSNHWVFGGGTKLTVLGGGGGSGGGGSGGGGSGGGGSEVQLVESGGGSVQPGGSLRLSCAASGFTFSTYAMNWVRQAPGKGLEWVGRIRSKANNYATYYADSVKGRFTISRDDSKNTLYLQMNSLRAEDTATYYCVRHGNFGDSYVSWFAYWGQGTTVTVSS | binds | binds | binds | –
4 | CDR1-048 (other, Trispecific Fab-scFv: anti-CD3 Fab, anti-BCMA scFv on the Fd, anti-PD-L1 scFv on the light chain) heavy: EVQLVESGGGSVQPGGSLRLSCAASGFTFSTYAMNWVRQAPGKGLEWVGRIRSKANNYATYYADSVKGRFTISRDDSKNTLYLQMNSLRAEDTATYYCVRHGNFGDSYVSWFAYWGQGTTVTVSSASTKGPSVFPLAPSSKSTSGGTAALGCLVKDYFPEPVTVSWNSGALTSGVHTFPAVLQSSGLYSLSSVVTVPSSSLGTQTYICNVNHKPSNTKVDKRVEPKSCGGGGSDIVLTQSPASLAMSLGKRATISCRASESVSVIGAHLIHWYQQKPGQPPKLLIYLASNLETGVPARFSGSGSGTDFTLTIDPVEEDDVAIYSCLQSRIFPRTFGGGTKLEIKGGGGSGGGGSGGGGSGGGGSQIQLVQSGPELKKPGETVKISCKASGYTFTDYSINWVKRAPGKGLKWMGWINTETREPAYAYDFRGRFAFSLETSASTAYLQINNLKYEDTATYFCALDYSYAMDYWGQGTSVTVSS light: AVVTQEPSLTVSPGGTVTLTCGSSTGAVTTSNYANWVQQKPGKSPRGLIGGTNKRAPGVPARFSGSLLGGKAALTISGAQPEDEADYYCALWYSNHWVFGGGTKLTVLGTVAAPSVFIFPPSDEQLKSGTASVVCLLNNFYPREAKVQWKVDNALQSGNSQESVTEQDSKDSTYSLSSTLTLSKADYEKHKVYACEVTHQGLSSPVTKSFNRGECGGGGSEIVMTQSPSTLSASVGDRVIITCQASEDIYSLLAWYQQKPGKAPKLLIYDASDLASGVPSRFSGSGSGAEFTLTISSLQPDDSATYYCQGNYGSSSSSSYGAVFGQGTKLTVLGGGGGSGGGGSGGGGSGGGGSEVQLVESGGGSVQPGGSLRLSCTVSGIDLSSYTMGWVRQAPGKGLEWVGIISSGGRTYYASWAKGRFTISRDTSKNTVYLQMNSLRAEDTATYYCARGRYTGYPYYFALWGQGTTVTVSS | binds | binds | binds | –
5 | CDR1-047 (other, Trispecific Fab-scFv: anti-BCMA Fab, anti-CD3 scFv on the Fd, anti-PD-L1 scFv on the light chain) heavy: QIQLVQSGPELKKPGETVKISCKASGYTFTDYSINWVKRAPGKGLKWMGWINTETREPAYAYDFRGRFAFSLETSASTAYLQINNLKYEDTATYFCALDYSYAMDYWGQGTSVTVSSASTKGPSVFPLAPSSKSTSGGTAALGCLVKDYFPEPVTVSWNSGALTSGVHTFPAVLQSSGLYSLSSVVTVPSSSLGTQTYICNVNHKPSNTKVDKRVEPKSCGGGGSAVVTQEPSLTVSPGGTVTLTCGSSTGAVTTSNYANWVQQKPGKSPRGLIGGTNKRAPGVPARFSGSLLGGKAALTISGAQPEDEADYYCALWYSNHWVFGGGTKLTVLGGGGGSGGGGSGGGGSGGGGSEVQLVESGGGSVQPGGSLRLSCAASGFTFSTYAMNWVRQAPGKGLEWVGRIRSKANNYATYYADSVKGRFTISRDDSKNTLYLQMNSLRAEDTATYYCVRHGNFGDSYVSWFAYWGQGTTVTVSS light: DIVLTQSPASLAMSLGKRATISCRASESVSVIGAHLIHWYQQKPGQPPKLLIYLASNLETGVPARFSGSGSGTDFTLTIDPVEEDDVAIYSCLQSRIFPRTFGGGTKLEIKRTVAAPSVFIFPPSDEQLKSGTASVVCLLNNFYPREAKVQWKVDNALQSGNSQESVTEQDSKDSTYSLSSTLTLSKADYEKHKVYACEVTHQGLSSPVTKSFNRGECGGGGSEIVMTQSPSTLSASVGDRVIITCQASEDIYSLLAWYQQKPGKAPKLLIYDASDLASGVPSRFSGSGSGAEFTLTISSLQPDDSATYYCQGNYGSSSSSSYGAVFGQGTKLTVLGGGGGSGGGGSGGGGSGGGGSEVQLVESGGGSVQPGGSLRLSCTVSGIDLSSYTMGWVRQAPGKGLEWVGIISSGGRTYYASWAKGRFTISRDTSKNTVYLQMNSLRAEDTATYYCARGRYTGYPYYFALWGQGTTVTVSS | binds | binds | binds | –
6 | CDR1-056 (other, Trispecific tandem scFv-sdAb-sdAb on one chain; also called CDR-056) AVVTQEPSLTVSPGGTVTLTCGSSTGAVTTSNYANWVQQKPGKSPRGLIGGTNKRAPGVPARFSGSLLGGKAALTISGAQPEDEADYYCALWYSNHWVFGGGTKLTVLGGGGGSGGGGSGGGGSGGGGSEVQLVESGGGSVQPGGSLRLSCAASGFTFSTYAMNWVRQAPGKGLEWVGRIRSKANNYATYYADSVKGRFTISRDDSKNTLYLQMNSLRAEDTATYYCVRHGNFGDSYVSWFAYWGQGTTVTVSSGGGGSQVQLVESGGGLVQPGGSLRLSCAASGKMSSRRCMAWFRQAPGKGLERVAKLLTTSGSTYLADSVKGRFTISRDNSKNTVYLQMNSLRAEDTAVYYCAADSFEDPTCTLVTSSGAFQYWGQGTLVTVSSGGGGSQVQLVESGGGLVQPGGSLRLSCAASGFTLDYYAIGWFRQAPGKEREGVSCISRSDGSTYYADSVKGRFTISRDNAKNTVYLQMNSLKPEDTAVYYCAAAGADCSGYLRDYEFWGQGTLVTVSS | binds | binds | binds | –
